Positions count from the first letter of the chain named. Numbers in names are those of the source. Values belong to the binder of their own block, whether it stands above or below them.
Tests used:
KDR-IgG [1] = biological target: T1, KDR-IgG (UniProt P35968 20-764); assay: competition with 125I-VEGF165 for KDR-IgG, radioligand plate assay, no heparin
T1 construct: Construct only cited from Park et al. 1994; also called KDR receptor-IgG chimera; soluble KDR; not shown: IgG part of the chimera (captured by anti-human IgG Fc)
T1 sequence (P35968 20-764): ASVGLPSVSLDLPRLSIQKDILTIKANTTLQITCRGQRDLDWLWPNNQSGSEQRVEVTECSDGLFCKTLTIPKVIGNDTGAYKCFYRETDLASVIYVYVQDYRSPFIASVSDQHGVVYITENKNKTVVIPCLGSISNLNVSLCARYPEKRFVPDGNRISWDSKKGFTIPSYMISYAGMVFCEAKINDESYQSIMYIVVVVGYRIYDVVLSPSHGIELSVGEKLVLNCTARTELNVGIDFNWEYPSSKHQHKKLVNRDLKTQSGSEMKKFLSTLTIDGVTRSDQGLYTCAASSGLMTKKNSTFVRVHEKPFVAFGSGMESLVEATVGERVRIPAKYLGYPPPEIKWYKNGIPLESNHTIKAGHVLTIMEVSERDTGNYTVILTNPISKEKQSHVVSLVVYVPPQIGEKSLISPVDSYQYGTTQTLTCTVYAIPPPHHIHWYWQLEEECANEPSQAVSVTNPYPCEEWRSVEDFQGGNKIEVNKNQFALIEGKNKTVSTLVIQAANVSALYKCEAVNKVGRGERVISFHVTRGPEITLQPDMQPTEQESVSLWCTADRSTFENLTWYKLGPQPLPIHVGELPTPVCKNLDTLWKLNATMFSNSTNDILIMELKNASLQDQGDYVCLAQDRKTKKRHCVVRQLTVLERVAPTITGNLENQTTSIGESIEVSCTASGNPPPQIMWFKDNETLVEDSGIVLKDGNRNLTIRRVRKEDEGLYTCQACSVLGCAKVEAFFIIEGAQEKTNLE
Method: (§1) After the supernatant was discarded, the wells were washed three times in washing buffer (0.01% Tween 80 in PBS). The plate was blocked (300 µl/well) for one hr in assay buffer (0.5% BSA, 0.03% Tween 80, 0.01% Thimerosal in PBS). The supernatant was discarded and the wells were washed. […] Aliquots of this solution (100 µl) were added to pre-coated microtiter plates and incubated for 4 hr at ambient temperature with gentle agitation. The supernatant was discarded, the plate washed, and individual microtiter wells were counted by gamma scintigraphy (LKB model 1277).
(§2) In addition to the specific amino acid substitutions, the table indicates the mean residue number for the position of the mutation(s). For a given mutant, this number is the average of the altered positions.

FLT-1 IgG [2] = biological target: T2, FLT-1 IgG (UniProt P17948 27-758); assay: competition with 125I-VEGF165 for FLT-1-IgG, radioligand plate assay, no heparin
T2 construct: Construct only cited from Park et al. 1994; also called FLT-IgG; FLT-1 receptor-IgG chimera; not shown: IgG part of the chimera (captured by anti-human IgG Fc)
T2 sequence (P17948 27-758): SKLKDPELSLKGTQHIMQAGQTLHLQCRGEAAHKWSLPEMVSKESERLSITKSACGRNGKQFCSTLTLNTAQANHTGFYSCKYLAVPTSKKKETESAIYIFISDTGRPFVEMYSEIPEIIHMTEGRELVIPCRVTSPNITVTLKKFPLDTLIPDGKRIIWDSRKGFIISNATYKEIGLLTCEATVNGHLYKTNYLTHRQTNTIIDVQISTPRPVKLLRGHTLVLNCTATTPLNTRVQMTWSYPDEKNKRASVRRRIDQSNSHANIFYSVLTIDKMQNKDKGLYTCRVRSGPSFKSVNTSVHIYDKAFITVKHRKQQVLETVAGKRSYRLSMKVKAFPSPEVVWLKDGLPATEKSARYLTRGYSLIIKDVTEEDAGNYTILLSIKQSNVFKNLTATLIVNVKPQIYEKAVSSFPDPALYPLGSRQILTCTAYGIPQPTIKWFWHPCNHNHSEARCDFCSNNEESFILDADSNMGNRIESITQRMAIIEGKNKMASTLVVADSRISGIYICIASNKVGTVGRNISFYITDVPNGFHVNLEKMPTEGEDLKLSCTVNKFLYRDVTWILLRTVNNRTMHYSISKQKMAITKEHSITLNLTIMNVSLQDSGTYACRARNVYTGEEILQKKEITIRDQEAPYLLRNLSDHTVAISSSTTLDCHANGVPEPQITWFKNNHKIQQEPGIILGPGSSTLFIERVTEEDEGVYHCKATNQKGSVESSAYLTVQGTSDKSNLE
Method: as §1

KDR-IgG [3] = biological target: T1, KDR-IgG; assay: competition with 125I-VEGF165 for KDR-IgG, n=8
Method: as §1, §2

FLT-1 IgG [4] = biological target: T2, FLT-1 IgG; assay: competition with 125I-VEGF165 for FLT-1-IgG, with heparin
Method: as §1

FLT-1 IgG [5] = biological target: T2, FLT-1 IgG; assay: competition with 125I-VEGF165 for FLT-1-IgG, radioligand plate assay
Method: as §1

FLT-1 IgG [6] = biological target: T2, FLT-1 IgG; assay: as above; remark: listed apart in the source
Method: as §1

KDR-IgG [7] = biological target: T1, KDR-IgG; assay: competition with 125I-VEGF165 for KDR-IgG, radioligand plate assay
Method: as §1

B1: wildtype VEGF165 expressed in 293 cells (ligand)
chain: APMAEGGGQNHHEVVKFMDVYQRSYCHPIETLVDIFQEYPDEIEYIFKPSCVPLMRCGGCCNDEGLECVPTEESNITMQIMRIKPHQGQHIGEMSFLQHNKCECRPKKDRARQENPCGPCSERRKHLFVQDPQTCKCSCKNTDSRCKARQLELNERTCRCDKPRR
modifications: N-linked carbohydrate at Asn75
notes: Transiently expressed in 293 cells; tested as conditioned medium
IC50 (KDR-IgG [1]): 0.03 nM | IC50 (FLT-1 IgG [2]): 0.022 nM | IC50 (KDR-IgG [3]): 0.031 nM | IC50 (FLT-1 IgG [4]): 0.015 nM

B4: E30A VEGF (ligand)
chain: B1 chain with E30A
notes: VEGF165 mutant from 293 cells, conditioned medium
IC50 (FLT-1 IgG [2]): 0.028 nM

B5: E64A VEGF (ligand)
chain: B1 chain with E64A
notes: as for B4
IC50 (KDR-IgG [7]): 8 ng/mL | IC50 (FLT-1 IgG [2]): 0.016 nM | IC50 (FLT-1 IgG [6]): 0.94 ng/mL

B7: K48A VEGF (ligand)
chain: B1 chain with K48A
notes: as for B4
IC50 (KDR-IgG [1]): 0.02 nM | IC50 (FLT-1 IgG [5]): 1.08 ng/mL | IC50 (FLT-1 IgG [2]): 0.026 nM

B8: E42A VEGF (ligand)
chain: B1 chain with E42A
notes: as for B4
IC50 (KDR-IgG [1]): 0.007 nM | IC50 (FLT-1 IgG [5]): 0.51 ng/mL | IC50 (FLT-1 IgG [2]): 0.008 nM

B10: E72A, E73A VEGF (ligand)
chain: B1 chain with E72A, E73A
notes: as for B4
IC50 (FLT-1 IgG [5]): 0.91 ng/mL | IC50 (FLT-1 IgG [2]): 0.03 nM

B11: E64N, L66S VEGF (ligand)
chain: B1 chain with E64N, L66S
modifications: putative extra N-linked glycosylation at position 64
notes: Neo-glycosylation mutant from 293 cells, conditioned medium
IC50 (FLT-1 IgG [2]): 0.98 nM | IC50 (FLT-1 IgG [6]): 35.6 ng/mL | IC50 (FLT-1 IgG [4]): 0.65 nM

B12: E5A VEGF (ligand)
chain: B1 chain with E5A
notes: as for B4
IC50 (FLT-1 IgG [2]): 0.022 nM

B13: D63A VEGF (ligand)
chain: B1 chain with D63A
notes: as for B4
IC50 (KDR-IgG [1]): 0.005 nM | IC50 (FLT-1 IgG [2]): 0.026 nM | IC50 (FLT-1 IgG [6]): 1.54 ng/mL

B15: E67A VEGF (ligand)
chain: B1 chain with E67A
notes: as for B4
IC50 (FLT-1 IgG [2]): 0.008 nM | IC50 (FLT-1 IgG [6]): 0.47 ng/mL

B20: E44A VEGF (ligand)
chain: B1 chain with E44A
notes: as for B4
IC50 (KDR-IgG [1]): 0.004 nM | IC50 (FLT-1 IgG [5]): 0.54 ng/mL | IC50 (FLT-1 IgG [2]): 0.009 nM

B24: R23A VEGF (ligand)
chain: B1 chain with R23A
notes: as for B4
IC50 (KDR-IgG [7]): 2 ng/mL | IC50 (FLT-1 IgG [5]): 1 ng/mL | IC50 (FLT-1 IgG [2]): 0.03 nM

B25: D63A, E64A, E67A VEGF (ligand)
chain: B1 chain with D63A, E64A, E67A
notes: as for B4
IC50 (FLT-1 IgG [2]): 0.78 nM | IC50 (FLT-1 IgG [6]): 44.6 ng/mL

B26: E64S VEGF (ligand)
chain: B1 chain with E64S
notes: preparation not described further
IC50 (FLT-1 IgG [6]): 1.9 ng/mL

B29: D34A VEGF (ligand)
chain: B1 chain with D34A
notes: as for B4
IC50 (FLT-1 IgG [5]): 0.59 ng/mL | IC50 (FLT-1 IgG [2]): 0.011 nM

B30: D41A VEGF (ligand)
chain: B1 chain with D41A
notes: as for B4
IC50 (FLT-1 IgG [2]): 0.022 nM

B31: E38A VEGF (ligand)
chain: B1 chain with E38A
notes: as for B4
IC50 (FLT-1 IgG [5]): 0.87 ng/mL | IC50 (FLT-1 IgG [2]): 0.015 nM

B32: H11A, H12A, E13A VEGF (ligand)
chain: B1 chain with H11A, H12A, E13A
notes: as for B4
IC50 (FLT-1 IgG [5]): 0.62 ng/mL | IC50 (FLT-1 IgG [2]): 0.02 nM

B33: E42N, E44S VEGF (ligand)
chain: B1 chain with E42N, E44S
modifications: N-linked carbohydrate at position 42 (apparently glycosylated)
notes: Neo-glycosylation control mutant from 293 cells, conditioned medium
IC50 (FLT-1 IgG [5]): 0.77 ng/mL | IC50 (FLT-1 IgG [2]): 0.013 nM

Other lines, results leading:

IC50 (FLT-1 IgG [5]): 0.95 ng/mL | IC50 (FLT-1 IgG [2]): 0.019 nM | IC50 (FLT-1 IgG [6]): 0.95 ng/mL
B2: purified CHO-derived VEGF165 (ligand)
chain: B1 chain
notes: Homodimer; also called VEGF (CHO cell); wildtype VEGF165 derived from CHO cells

IC50 (FLT-1 IgG [5]): 2.42 ng/mL | IC50 (FLT-1 IgG [2]): 0.054 nM
B3: KKDR(107-110)AAAA VEGF (ligand)
chain: B1 chain with K107A, K108A, D109A, R110A
notes: VEGF165 mutant from 293 cells, conditioned medium; also called K107A, K108A, D109A, R110A

IC50 (FLT-1 IgG [2]): 0.048 nM | IC50 (FLT-1 IgG [6]): 1.7 ng/mL
B6: R82A, K84A, H86A VEGF (ligand)
chain: B1 chain with R82A, K84A, H86A
notes: VEGF165 mutant from 293 cells, conditioned medium; also called R82A, K84A, H86 VEGF

IC50 (FLT-1 IgG [5]): 0.74 ng/mL | IC50 (FLT-1 IgG [2]): 0.017 nM
B9: E103A VEGF (ligand)
chain: B1 chain with E103A
notes: as for B4

IC50 (KDR-IgG [1]): 0.04 nM | IC50 (FLT-1 IgG [5]): 0.56 ng/mL | IC50 (FLT-1 IgG [2]): 0.013 nM
B14: R112A, E114A VEGF (ligand)
chain: B1 chain with R112A, E114A
notes: as for B4

IC50 (FLT-1 IgG [5]): 2.94 ng/mL | IC50 (FLT-1 IgG [2]): 0.066 nM
B16: K107A, K108A VEGF (ligand)
chain: B1 chain with K107A, K108A
notes: as for B4

IC50 (KDR-IgG [1]): 0.03 nM | IC50 (FLT-1 IgG [5]): 1.42 ng/mL | IC50 (FLT-1 IgG [2]): 0.035 nM
B17: D109A, R110A VEGF (ligand)
chain: B1 chain with D109A, R110A
notes: as for B4

IC50 (FLT-1 IgG [2]): 0.024 nM | IC50 (FLT-1 IgG [6]): 1.91 ng/mL
B18: K84A VEGF (ligand)
chain: B1 chain with K84A
notes: as for B4

IC50 (FLT-1 IgG [5]): 1.26 ng/mL | IC50 (FLT-1 IgG [2]): 0.022 nM
B19: N75A VEGF (ligand)
chain: B1 chain with N75A
notes: Unglycosylated form of VEGF from 293 cells, conditioned medium

IC50 (FLT-1 IgG [5]): 1.33 ng/mL | IC50 (FLT-1 IgG [2]): 0.03 nM
B21: H99A, K101A VEGF (ligand)
chain: B1 chain with H99A, K101A
notes: as for B4

IC50 (KDR-IgG [7]): 2 ng/mL | IC50 (FLT-1 IgG [2]): 0.015 nM | IC50 (FLT-1 IgG [6]): 1.19 ng/mL
B22: H86A VEGF (ligand)
chain: B1 chain with H86A
notes: as for B4

IC50 (FLT-1 IgG [5]): 0.077 ng/mL | IC50 (FLT-1 IgG [2]): 0.026 nM
B23: H90A, E93A VEGF (ligand)
chain: B1 chain with H90A, E93A
notes: VEGF165 mutant from 293 cells, conditioned medium; also called H9OA, E93A

IC50 (KDR-IgG [7]): > 10000 ng/mL | IC50 (KDR-IgG [1]): > 100 nM | IC50 (FLT-1 IgG [2]): 0.029 nM | IC50 (FLT-1 IgG [6]): 1.63 ng/mL
B27: RIK(82-84)NLS VEGF (ligand)
chain: B1 chain with R82N, I83L, K84S
modifications: potential N-linked glycosylation site at position 82 (extent of glycosylation not apparent)
notes: Neo-glycosylation mutant from 293 cells, conditioned medium; also called R82N, I83L, K84S

IC50 (FLT-1 IgG [2]): 0.02 nM | IC50 (FLT-1 IgG [6]): 1.23 ng/mL
B28: R82A VEGF (ligand)
chain: B1 chain with R82A
notes: as for B4

IC50 (FLT-1 IgG [5]): 1.57 ng/mL | IC50 (FLT-1 IgG [2]): 0.038 nM
B34: R105A VEGF (ligand)
chain: B1 chain with R105A
notes: as for B4

— patent US7005505 (Genentech, dated 2006)
